Measurements: patent US20170334985A1 (Genentech, published 2017)

Key:
[1] = molecular target: T1, human IL-17AF heterodimer (human, UniProt Q16552 24-155; Q96PD4 31-163, limits assumed); test: cell-based or functional assay
T1 sequence 1: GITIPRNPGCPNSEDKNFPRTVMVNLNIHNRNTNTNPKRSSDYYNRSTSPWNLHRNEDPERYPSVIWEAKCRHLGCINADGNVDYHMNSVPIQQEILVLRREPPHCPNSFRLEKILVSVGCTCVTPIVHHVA
T1 sequence 2: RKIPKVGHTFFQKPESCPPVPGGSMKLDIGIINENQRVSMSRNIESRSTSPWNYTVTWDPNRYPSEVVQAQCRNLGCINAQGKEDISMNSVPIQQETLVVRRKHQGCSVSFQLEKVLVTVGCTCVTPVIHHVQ

[2] = molecular target: T2, human IL-17FF (human, UniProt Q96PD4 31-163); test: cell-based or functional assay
T2 sequence: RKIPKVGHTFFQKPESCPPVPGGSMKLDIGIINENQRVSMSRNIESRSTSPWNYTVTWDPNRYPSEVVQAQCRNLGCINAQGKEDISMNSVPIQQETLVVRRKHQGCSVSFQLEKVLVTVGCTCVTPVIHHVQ

[3] = molecular target: T3, human IL-17AA (human, UniProt Q16552 20-155, limits assumed); test: SPR (BIAcore T200), bispecific antibody captured by anti-human Fc on CM5 chip, cytokine injected, 25 C, 1:1 Langmuir model
T3 construct: Bought from R&D Systems, cat #317-ILB-050; also called IL-17A homodimer
T3 sequence: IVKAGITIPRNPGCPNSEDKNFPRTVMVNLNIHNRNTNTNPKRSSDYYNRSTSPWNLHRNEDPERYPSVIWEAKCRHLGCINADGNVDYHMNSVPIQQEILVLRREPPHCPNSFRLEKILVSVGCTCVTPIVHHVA
Procedure: (§1) Binding affinities of anti-IL-17/anti-IL-13 bispecific antibody against various IL-17 cytokines were measured by Surface Plasmon Resonance (SRP) using a BIAcore™-T200 instrument. Anti-IL-17/anti-IL-13 bispecific antibody was captured by mouse anti-human Fc antibody (GE Healthcare, cat #BR-1008-39) coated on CM5 biosensor chips to achieve approximately 500 response units (RU). For kinetics measurements, five-fold serial dilutions (20 nM to 32 pM) of human IL-17AA (R&D Systems, cat #317-ILB-050), human IL-17AF heterodimer, human IL-17FF (R&D Systems, cat #1335-IL-025/CF), cyno IL-17AA, cyno IL-17AF, and cyno IL-17FF were injected in HBS-P buffer (GE Healthcare) at 25° C. with a flow rate of 30 μl/min. Association rates (kₒₙ) and dissociation rates (koff) were calculated using a simple one-to-one Langmuir binding model (BlAcore T200 Evaluation Software version 2.0). The equilibrium dissociation constant (KD) was calculated as the ratio koff/kₒₙ.

[4] = molecular target: T4, cyno IL-17AA (cynomolgus monkey, UniProt A0A2K5TTB0 24-155); test: as above
T4 construct: Recombinant protein in the SPR assay; also called cynomolgus monkey IL-17AA; IL-17A homodimer (cynomolgus monkey)
T4 sequence: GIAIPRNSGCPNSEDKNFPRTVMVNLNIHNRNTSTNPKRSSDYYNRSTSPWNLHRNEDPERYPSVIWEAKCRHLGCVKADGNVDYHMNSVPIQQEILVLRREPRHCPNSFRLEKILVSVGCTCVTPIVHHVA
Procedure: as §1

[5] = molecular target: T5, human IL-13 R130Q (human, UniProt P35225 35-146, limits assumed); test: SPR (BIAcore T200), antibody captured by anti-human Fc on CM5 chip, cytokine injected, 25 C, 1:1 Langmuir model
T5 construct: Common IL-13 variant
T5 sequence (P35225 35-146 limits assumed, stated change not applied): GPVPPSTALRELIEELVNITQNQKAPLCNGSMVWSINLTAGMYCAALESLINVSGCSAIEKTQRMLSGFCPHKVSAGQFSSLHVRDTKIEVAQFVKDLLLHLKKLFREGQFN
Procedure: (§2) Binding affinities of the anti-IL-17/anti-IL-13 bispecific antibody against human and cynomolgus monkey IL-13 cytokines were measured with a BIAcore™-T200 instrument. Anti-IL-13 antibody was captured by mouse anti-human Fc antibody (GE Healthcare, cat #BR-1008-39) coated on CM5 biosensor chips to achieve approximately 500 response units (RU). Four-fold serial dilutions (50 nM to 49 pM) of human IL-13, human IL-13R130Q (a common IL-13 variant associated with allergy and asthma, see Vladich et al., 2005, J. Clin Invest., 115:747-754), and cyno IL-13 were injected in FIBS-P buffer (GE Healthcare) at 25° C. with a flow rate of 30 μl/min. Association rates (kₒₙ) and dissociation rates (koff) were calculated using a simple one-to-one Langmuir binding model (BIAcore T200 Evaluation Software version 2.0). The equilibrium dissociation constant (KD) was calculated as the ratio koff/kₒₙ.

[6] = molecular target: T6, human IL-13 (human, UniProt P35225 35-146, limits assumed); test: as above
T6 construct: also called recombinant human IL-13
T6 sequence (P35225 other isoform, or with tags, fused parts or gaps limits assumed): as the sequence (P35225 35-146 limits assumed, stated change not applied) above, with Q110R counted along it
Procedure: as §2

[7] = molecular target: T7, cynomolgus monkey IL-13 (cynomolgus monkey, UniProt Q5I6E4 19-132 (Macaca thibetana entry), limits assumed); test: as above
T7 construct: also called cyno IL-13
T7 chain: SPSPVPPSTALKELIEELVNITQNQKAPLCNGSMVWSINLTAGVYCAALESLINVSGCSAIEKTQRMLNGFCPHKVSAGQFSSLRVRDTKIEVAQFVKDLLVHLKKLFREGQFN
Procedure: as §2

B1: Parental anti-IL17 antibody (antibody, V domains shown)
VH: EVQLVESGGGLVQPGRSLRLSCAASGFTFDDYAMHWVRQAPGKGLEWVSGINWSSGGIGYADSVKGRFTISRDNAKNSLYLQMNSLRAEDTALYYCARDIGGFGEFYWNFGLWGRGTLVTVSS
VL: not shown
IC90 (molar ratio), inhibition of IL-17AF-induced G-CSF expression in normal human foreskin fibroblasts (ELISA) [1]: ~1 molar ratio | IC90 (molar ratio), inhibition of IL-17FF-induced G-CSF expression in normal human foreskin fibroblasts (ELISA) [2]: ~1 molar ratio

B2: anti-IL-13/IL-17 bispecific antibody (bispecific antibody, human IgG4 S228P)
heavy 1: not shown
VL 1: DIVLTQSPDSLSVSLGERATINCRASKSVDSYGNSFMHWYQQKPGQPPKLLIYLASNLESGVPDRFSGSGSGTDFTLTISSLQAEDVAVYYCQQNNEDPRTFGGGTKVEIKR
heavy 2: EVQLVESGGGLVQPGRSLRLSCAASGFTFDDYAMHWVRQAPGKGLEWVSGINWSSGGIGYADSVKGRFTISRDNAKNSLYLQMNSLRAEDTALYYCARDIGGFGEFYWNFGLWGRGTLVTVSSASTKGPSVFPLAPCSRSTSESTAALGCLVKDYFPEPVTVSWNSGALTSGVHTFPAVLQSSGLYSLSSVVTVPSSSLGTKTYTCNVDHKPSNTKVDKRVESKYGPPCPPCPAPEFLGGPSVFLFPPKPKDTLMISRTPEVTCVVVDVSQEDPEVQFNWYVDGVEVHNAKTKPREEQFNSTYRVVSVLTVLHQDWLNGKEYKCKVSNKGLPSSIEKTISKAKGQPREPQVYTLPPSQEEMTKNQVSLSCAVKGFYPSDIAVEWESNGQPENNYKTTPPVLDSDGSFFLVSRLTVDKSRWQEGNVFSCSVMHEALHNHYTQKSLSLSLGK
VL 2: not shown
notes: Knobs-into-holes human IgG4; also called anti-IL-17/anti-IL-13 bispecific antibody; anti-IL-13/IL-17 IgG4 bispecific antibody
Kd [3]: 0.021 nM | koff [3]: 0.000118 s⁻¹ | kon [3]: 5.55e+06 M⁻¹ s⁻¹ | Kd [4]: 0.033 nM | koff [4]: 0.000291 s⁻¹ | kon [4]: 8.89e+06 M⁻¹ s⁻¹ | Kd [5]: < 0.001 nM | koff [5]: < 1e-06 s⁻¹ | kon [5]: 864000 M⁻¹ s⁻¹ | Kd [6]: 0.0355 nM | koff [6]: 2.07e-05 s⁻¹ | kon [6]: 584000 M⁻¹ s⁻¹ | Kd [7]: < 0.001 nM | koff [7]: < 1e-06 s⁻¹ | kon [7]: > 1e+06 M⁻¹ s⁻¹
